Assay results reported in doi:10.1101/2021.11.19.469356 (bioRxiv, 2021).
Where “and” joins values, the source holds several entries; their conditions need not be identical. Equal entries are not always repeated. Where no end group is shown, it is not given here.

Key:
[1] = target: T1, MED25 ACID (residues Leu389-Asn543), recombinant (human, UniProt Q71SY5 389-543); experiment: pull-down
T1 sequence: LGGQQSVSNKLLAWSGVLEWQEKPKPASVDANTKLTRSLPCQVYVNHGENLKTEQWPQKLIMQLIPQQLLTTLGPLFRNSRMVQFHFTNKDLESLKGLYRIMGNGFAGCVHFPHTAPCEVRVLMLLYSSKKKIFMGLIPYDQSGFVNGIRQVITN

[2] = target: T1, MED25 ACID (residues Leu389-Asn543), …; experiment: NMR titration

B1: GST-ATF6αTAD (residues 1-150) (domain or fragment)
chain: MGEPAGVAGTMESPFSPGLFHRLDEDWDSALFAELGYFTDTDELQLEAANETYENNFDNLDFDLDLMPWESDIWDINNQICTVKDIKAEPQPLSPASSSYSVSSPRSVDSYSSTQHVPEELDLSSSSQMSPLSLYGENSNSLSSAEPLKE
binding result [1]: binds

Ac-SDSTMTNYMNQLSELLGFDLNP [N-acetylated NS1 α3 peptide (RSV NS1 residues Ser118-Pro139)]
Kd [2]: 17 ± 8 µM | apparent Kd, second site of lower affinity (H1 face) [2]: 200 µM and 1000 µM
